T1: GIP receptor (GIP RBA, RIN), P43219
T1 chain: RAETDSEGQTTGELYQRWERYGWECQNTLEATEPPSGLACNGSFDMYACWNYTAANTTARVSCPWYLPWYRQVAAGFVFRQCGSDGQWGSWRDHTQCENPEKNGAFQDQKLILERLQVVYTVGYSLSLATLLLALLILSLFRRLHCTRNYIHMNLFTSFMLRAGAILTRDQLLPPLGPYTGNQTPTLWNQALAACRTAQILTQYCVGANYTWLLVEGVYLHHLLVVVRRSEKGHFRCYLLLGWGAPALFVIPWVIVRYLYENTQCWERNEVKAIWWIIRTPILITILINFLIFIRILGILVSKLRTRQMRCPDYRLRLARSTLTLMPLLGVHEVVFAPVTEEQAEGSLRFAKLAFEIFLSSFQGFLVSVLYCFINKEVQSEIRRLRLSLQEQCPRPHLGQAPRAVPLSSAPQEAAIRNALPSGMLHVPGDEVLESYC

T2: human GIP receptor (human), P48546
T2 chain: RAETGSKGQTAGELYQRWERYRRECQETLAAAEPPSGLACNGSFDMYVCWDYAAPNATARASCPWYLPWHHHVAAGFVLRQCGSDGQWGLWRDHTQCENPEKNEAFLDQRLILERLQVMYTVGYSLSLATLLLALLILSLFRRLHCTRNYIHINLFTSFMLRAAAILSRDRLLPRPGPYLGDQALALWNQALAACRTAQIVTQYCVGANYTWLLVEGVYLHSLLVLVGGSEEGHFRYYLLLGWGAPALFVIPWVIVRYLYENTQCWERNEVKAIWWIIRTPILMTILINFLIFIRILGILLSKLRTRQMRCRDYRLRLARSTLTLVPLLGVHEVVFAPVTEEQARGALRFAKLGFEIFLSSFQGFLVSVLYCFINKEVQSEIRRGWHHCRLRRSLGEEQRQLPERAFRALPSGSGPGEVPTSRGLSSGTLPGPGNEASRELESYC


Target: T1, GIP receptor (GIP RBA, RIN), P43219
Assay: cell-based or functional assay

Row | Binder | Cyclase
1 | YAEGTFISEYSIAMDKIHQQDFVNWLLAQKPSSGAPPPS (modifications not checked) [0601GIP4151] | 10000
2 | YAEGTFISDYSIAMDKIHQQDFVNWLLAQAPSSGAPPPS (modifications not checked) [0601GIP4165] | 40
3 | GYAEGTFISDYSIAMDKIHQQDFVNWLLAQKPSSGAPPPS (modifications not checked) [0601GIP4178] | 96

Target: T1, GIP receptor (GIP RBA, RIN), P43219
Assay: cell-based or functional assay
Remark: another data set of the same source

Row | Binder | Cyclase
4 | GYAEGTFISDYSIAMDKIHQQDFVNWLLAQKPSSGAPPPS (modifications not checked) [0601GIP4178] | 36.2
5 | GYAEGTFISDYSIAMDKIRQQDFVNWLLAQKPSSGAPPPS (modifications not checked) [0601GIP4293] | 20

Target: T2, human GIP receptor (human), P48546
Assay: 125I-GIP displacement by 10 nM analog, HEK-GIPR membranes

Row | Binder | % Inh at 10 nM
6 | YAEGTFISDYSIAMDKIHQQDFVNWLLAQKGFVLWKGIQ (modifications not checked) [0601GIP4619] | 84.6%
7 | YAEGTFISDYSIAMDKIHQQDFVNWLLAQKPKGKGKS (modifications not checked) [0601GIP4700] | 86.6%
8 | LYAEGTFISDYSIAMDKIHQQDFVNWLLAQKPKKIRYS (modifications not checked) [0601GIP4798] | 82.3%
9 | IYAEGTFISDYSIAMDKIHQQDFVNWLLAQKPKKIRYS (modifications not checked) [0601GIP4801] | 88.8%
10 | LYAEGTFISDYSIALDKIAQQEFVNWLLAQKPKKIRYS (modifications not checked) [0601GIP4802] | 87.3%
11 | LYAEGTFISDYSIALDKIAQQEFVNWLLAQKPKKIRYS (modifications not checked) [0601GIP4803] | 89.9%
12 | YAEGTFISDYSIAMDKIHQQDFVNWLLAQKPSKEIIH (modifications not checked) [0601GIP4710] | 79.2%
13 | YAEGTFISDYSIAMDKIHQQDFVNWLLAQKPSKEIIS (modifications not checked) [0601GIP4765] | 67%
14 | YAEGTFISDYSIALDKIHQQDFVNWLLAQKPKKIRYS (modifications not checked) [0601GIP4807] | 96.1%
15 | YAEGTFISDYSIAMDKIHQQDFVNWLLAQKPKKIRYS (modifications not checked) [0601GIP4233] | 89%
16 | YAEGTFISDYSIALDKIRQQDFVEWLLAQKPKKIRYS (modifications not checked) [0601GIP4540] | 92.2%
17 | YAEGTFISDYSIAMDKIHQQDFVPWLLAQKPKKIRYS (modifications not checked) [0601GIP4768] | 17.9%
18 | HGEGTFISDYSIALDKIRQQEFVNWLLAQKPKKIRYS (modifications not checked) [0601GIP4842] | 40.8%
19 | HGEGTFISDYSIALDKIAQQEFVNWLLAQKPKKIRYS (modifications not checked) [0601GIP4841] | 56.6%
20 | YADGTFISDYSIAMDKIHQQDFVNWLLAQKPKKIRYS (modifications not checked) [0601GIP4390] | 90.3%
21 | YAEGTFISDYSIAMDKIHQQDFVNWLLAQKPAKIRYS (modifications not checked) [0601GIP4815] | 89%
22 | YAEGTFISDYSIAMDKIHQQDFVNWLLAQKPKKLKPS (modifications not checked) [0601GIP4822] | 95.4%

Row | Binder | % Inh at 10 nM
23 | HGEGTFISDYSIAMDKIHQQDFVNWLLAQKPKKIRYS (modifications not checked) [0601GIP4839] | 23.9%
24 | YAEGTFISDYSIAMDKIHQQDFVNWLLAQKPKKIRYA (modifications not checked) [0601GIP4819] | 80.4%
25 | HAEGTFISDYSIAMDKIHQQDFVNWLLAQKPKKIRYS (modifications not checked) [0601GIP4840] | 44.1%
26 | YAEGTFISDYSIAMDKIHQQDFVNWLLAQKPKAIRYS (modifications not checked) [0601GIP4816] | 87.3%
27 | YSEGTFISDYSIAMDKIHQQDFVNWLLAQKPKKIRYS (modifications not checked) [0601GIP4538] | 94.2%
28 | YAEGTFISDYSIAMDKIHQQDFVNPLLAQKPKKIRYS (modifications not checked) [0601GIP4770] | 10.8%
29 | YAEGTFISDYSIALDKIAQQEFVNWLLAQKPKKIRYS (modifications not checked) [0601GIP4631] | 79%
30 | YAEGTFISDYSIAMDKIHQQDFVNWLEAQKPKKIRYS (modifications not checked) [0601GIP4771] | 17.8%
31 | YAEGTFISDYSIAMDKIHQQDFVNELLAQKPKKIRYS (modifications not checked) [0601GIP4769] | 42.8%
32 | YAEGTFISDYSIALDKIRQQEFVNWLLAQKPKKIRYS (modifications not checked) [0601GIP4539] | 98.7%
33 | YAEGTFISDYSIAMDKIHQQDFVNWLLAQKAKKIRYS (modifications not checked) [0601GIP4814] | 88%
34 | YAEGTFISDYSIAMDKIHQQDFVNWLLAQKPKKIRYS (modifications not checked) [0601GIP4762] | 79.1%
35 | YSDGTFISDYSIAMDKIHQQDFVNWLLAQKPKKIRYS (modifications not checked) [0601GIP4386] | 93.6%
36 | YAEGTFISDYSIAMDKIHQQDFVNWLLAQKPKSARPS (modifications not checked) [0601GIP4821] | 93.5%
37 | YAEGFISDYSIAMDKIHQQDFVNWLLAQKPSPKKIRYS (modifications not checked) [0601GIP4820] | 46%
38 | YAEGTFISDYSIAMDKIHQQDFVNWLLAQKPSPKKIRYS (modifications not checked) [0601GIP4823] | 94.1%
